Laboratory results as given in publication PMC10688271, “Molecular details of the CPSF73-CPSF100 C-terminal heterodimer and interaction with Symplekin”.

Biological target: T1, ec73-CTD12;ec100-CTD12 (Encephalitozoon …, UniProt Q8SUE4;M1JIZ1 452-567;525-639, |)
T1 sequence 1: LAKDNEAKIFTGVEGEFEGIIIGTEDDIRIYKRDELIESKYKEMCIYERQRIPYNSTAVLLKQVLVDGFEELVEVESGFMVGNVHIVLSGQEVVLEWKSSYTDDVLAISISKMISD
T1 sequence 2: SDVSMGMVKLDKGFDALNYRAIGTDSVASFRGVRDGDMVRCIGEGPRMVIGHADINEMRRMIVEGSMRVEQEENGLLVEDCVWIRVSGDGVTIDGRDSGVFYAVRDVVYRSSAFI
Assay: EMSA; 50 uM protein, 500 nM nucleic acid; NMR also negative (NMR ligands not specified); EMSA: 20 mM Tris pH 7.5, 150 mM potassium acetate, 1 mM EDTA, 10% glycerol; 30 min incubation; 10% Tris-glycine gel (running buffer 27 mM Tris, 192 mM glycine)
Details: protein: recombinant;recombinant, copies: 1;1

[1] = label: 3' Cy3 on forward strand, blunt

B1: dsDNA-Cy3 (dsDNA)
DNA 1: AGGGTCTCCATTTTGAAGCATGC
DNA 2: GCATGCTTCAAAATGGAGACCCT
[1]
  binding result: no binding

B2: ssDNA-Cy3 (ssDNA)
DNA: AGGGTCTCCATTTTGAAGCATGC
label: 3' Cy3, single strand
  binding result: no binding

B3: ssRNA-Cy3 (ssRNA)
RNA: AGGGUCUCCAUUUUGAAGCAUGC
label: 3' Cy3, single strand
  binding result: no binding

B4: dsRNA-Cy3 (dsRNA)
RNA 1: AGGGUCUCCAUUUUGAAGCAUGC
RNA 2: GCAUGCUUCAAAAUGGAGACCCU
[1]
  binding result: no binding
